Measurements as given in PMC10691244, “The mechanism of Gαq regulation of PLCβ3-catalyzed PIP2 hydrolysis” (Proceedings of the National Academy of Sciences of the …, 2023).

Target: T1, Phospholipase Cβ3 (PLCβ3), wild type (UniProt Q01970 10-1234)
T1 construct: Phospholipase Cβ3; The CTD linker and distal CTD are disordered in the structures; also called wild-type PLCβ3
T1 sequence: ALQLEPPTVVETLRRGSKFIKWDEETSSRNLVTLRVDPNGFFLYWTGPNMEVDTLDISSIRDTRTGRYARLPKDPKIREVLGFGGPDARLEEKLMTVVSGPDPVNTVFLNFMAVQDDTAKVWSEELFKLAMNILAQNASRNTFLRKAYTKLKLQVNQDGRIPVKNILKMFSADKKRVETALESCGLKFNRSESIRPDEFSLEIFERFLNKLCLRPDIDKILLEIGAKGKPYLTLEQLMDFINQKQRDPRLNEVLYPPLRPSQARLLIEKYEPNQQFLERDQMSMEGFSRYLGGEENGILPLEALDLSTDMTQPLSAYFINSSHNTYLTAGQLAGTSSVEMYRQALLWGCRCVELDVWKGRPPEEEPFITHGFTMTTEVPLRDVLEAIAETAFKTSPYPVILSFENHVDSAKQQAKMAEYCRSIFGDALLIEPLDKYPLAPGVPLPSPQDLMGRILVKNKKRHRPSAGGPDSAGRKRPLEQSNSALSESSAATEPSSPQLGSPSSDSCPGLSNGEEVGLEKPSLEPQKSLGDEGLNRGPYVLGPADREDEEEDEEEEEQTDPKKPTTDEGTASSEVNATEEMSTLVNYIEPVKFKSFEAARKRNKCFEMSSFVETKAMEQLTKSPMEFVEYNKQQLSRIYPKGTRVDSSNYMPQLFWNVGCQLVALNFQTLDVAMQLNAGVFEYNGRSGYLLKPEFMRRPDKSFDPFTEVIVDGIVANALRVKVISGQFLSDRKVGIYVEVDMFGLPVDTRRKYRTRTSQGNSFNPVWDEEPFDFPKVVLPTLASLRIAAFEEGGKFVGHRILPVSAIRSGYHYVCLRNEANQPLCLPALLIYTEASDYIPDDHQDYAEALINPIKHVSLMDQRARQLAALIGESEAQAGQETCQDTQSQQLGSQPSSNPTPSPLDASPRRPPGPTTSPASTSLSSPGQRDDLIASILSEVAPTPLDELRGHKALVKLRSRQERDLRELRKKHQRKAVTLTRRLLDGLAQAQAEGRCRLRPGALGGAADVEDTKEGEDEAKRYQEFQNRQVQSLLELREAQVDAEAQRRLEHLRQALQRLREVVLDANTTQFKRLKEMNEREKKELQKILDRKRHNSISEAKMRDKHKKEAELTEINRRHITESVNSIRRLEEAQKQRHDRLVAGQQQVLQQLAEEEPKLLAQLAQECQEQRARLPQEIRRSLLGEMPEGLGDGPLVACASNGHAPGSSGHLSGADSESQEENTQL
Assay: cryo-EM structure; PLCβ3 mixed with wildtype Gαq bound to GDP-AlF4, then added to 2DOPE:1POPC:1POPS (wt:wt:wt) vesicles with reconstituted lipidated Gβγ; 3.4 Å
Details: both partners purified

B1: Gαq, wild type, nonlipidated, bound to GDP-AlF4 (natural protein)
chain: MACCLSEEAKEARRINDEIERQLRRDKRDARRELKLLLLGTGESGKSTFIKQMRIIHGSGYSDEDKRGFTKLVYQNIFTAMQAMIRAMDTLKIPYKYEHNKAHAQLVREVDVEKVSAFENPYVDAIKSLWNDPGIQECYDRRREYQLSDSTKYYLNDLDRVADPAYLPTQQDVLRVRVPTTGIIEYPFDLQSVIFRMVDVGGQRSERRKWIHCFENVTSIMFLVALSEYDQVLVESDNENRMEESKALFRTIITYPWFQNSSVILFLNKKDLLEEKIMYSHLVDYFPEYDGPQRDAQAAREFILKMFVDLNPDSDKIIYSHFTCATDTENIRFVFAAVKDTILQLNLKEYNLV
notes: In the structures the N terminus is disordered until position 38; Construct limits, any chimeric N terminus, host and tags are described only in SI Appendix, Materials and Methods; also called wildtype Gαq; wild-type Gαq
- stoichiometry N: 1
